# Columns and labels:
# Assay in all cases: Luminex, iBeads (#6), 1:4
# [1] = target: HLA-Cw*0401 (Cw4) (human)
# [2] = target: HLA-Cw*1601 (Cw16) (human)
# [3] = target: HLA-Cw*0702 (Cw7) (human)
# [4] = target: HLA-Cw*1502 (Cw15) (human)
# [5] = target: Albumin (negative control beads) (human or bovine)
# [6] = target: HLA-Cw*0102 (Cw1) (human)
# [7] = target: HLA-Cw*0304 (Cw10) (human)
# [8] = target: HLA-Cw*0303 (Cw9) (human)
# [9] = target: HLA-Cw*0501 (Cw5) (human)
# [10] = target: HLA-Cw*0602 (Cw6) (human)
# [11] = target: HLA-Cw*1203 (Cw12) (human)
# [12] = target: HLA-Cw*1701 (Cw17) (human)
substance,measurement,setting,value
"IVIg Sandoglobulin (Novartis, Basel, Switzerland) (antibody)",MFI,[1],601 MFI
same,MFI,[2],613 MFI
same,MFI,[3],746 MFI
same,MFI,[4],458 MFI
same,MFI,[5],667 MFI
same,MFI,[6],511 MFI
same,MFI,[7],520 MFI
same,MFI,[8],500 MFI
same,MFI,[9],710 MFI
same,MFI,[10],627 MFI
same,MFI,[11],636 MFI
same,MFI,[12],1050 MFI

# From patent US10800847
